Biological target: ima4_human KPNA3 (UniProt O00505)
Sequence (O00505 whole entry): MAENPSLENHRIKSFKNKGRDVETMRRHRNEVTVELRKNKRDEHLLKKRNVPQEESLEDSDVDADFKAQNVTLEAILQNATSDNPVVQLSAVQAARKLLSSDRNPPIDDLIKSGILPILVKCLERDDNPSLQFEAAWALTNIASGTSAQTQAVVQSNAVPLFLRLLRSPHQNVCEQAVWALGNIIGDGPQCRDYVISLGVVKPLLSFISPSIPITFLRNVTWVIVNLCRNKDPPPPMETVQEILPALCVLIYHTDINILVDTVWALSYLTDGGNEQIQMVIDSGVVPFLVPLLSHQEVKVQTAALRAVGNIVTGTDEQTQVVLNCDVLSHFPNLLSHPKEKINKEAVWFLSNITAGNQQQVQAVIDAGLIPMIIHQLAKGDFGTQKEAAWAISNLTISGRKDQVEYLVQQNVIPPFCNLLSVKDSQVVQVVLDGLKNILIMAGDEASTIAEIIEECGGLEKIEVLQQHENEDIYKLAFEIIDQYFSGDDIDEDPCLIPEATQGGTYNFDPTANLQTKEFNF

Substance: Circumsporozoite protein (Plasmodium yoelii yoelii), P06914 R315T;R317T;R319T
- effect of a mutation on the interaction: decreasing interaction

Reference: IntAct's records for PubMed 17981117
